In US20200277374A1 (Alector, published 2020):

B1: anti-Siglec-7 antibody 3E11 (antibody, V domains shown)
VH: QVQLQQSGAELARPGASVKLSCKASGYIFTDYGITWVKQRTGQGLEWIGEISPRSGETYFNENYRVKATLTADKSSSTAYMQLFSLTSEDSAVYFCAREGNPFTYWGHGTLVTVSA
VL: DVZMTQTPLSLPVSLGDQASISCRSSQSLVHSTGNTYLHWYLQKPGQSPKLLIYKVSNRFCGVPDRFSGSGAGTDFTLKISRVEAEDLGVYFCSQNTHVPYTFGGGTKLEIK
notes: Variable domains assembled from FR and CDR entries
B2: anti-Siglec-7 antibody 4A1 (antibody, V domains shown)
VH: QVQLQQSGSELRSPGSSVKLSCKDFDSEVFPITYMNWVRQKPGHGFEWIGDILPSIGRTMYGEKFEDKATLDADTVSNTAYLELNSLTSEDSAIYYCARSEGYLLAYWGQGTLVTVSA
VL: DVVMTQTPLSLPVSLGDQASISCRSSQSLVHSTGNIYLHWYLQKPGQSPKLLIYKVSNRFZGVPDRFSGSGSGTDFTLKISRVEAEDLGVYFCSQNTHVPYTFGGGTKLEIK
notes: as for B1
B3: anti-Siglec-7 antibody 4E3 (antibody, V domains shown)
VH: EVQLVESGGALVKPGGSLKISCAVSGFIFSNYDMSWVRQNPEKRLEWVATISSGGGYTYYPDSVKGRFTISRDNAKNALYLQMSSLRSEDTALYYCTRHGYGNYDWYFDVWGAGATVTVSS
VL: QIVLTQSPAILSASPGEKVTMTCSANSSFTYMYWYQQKPGSSPRLLIFDTSNLASGVPIRFSGSGSGTSYSLTISRMEAEDTATYYCQQWSSSPLTFGAGTKLELK
notes: VL FR1 there holds a Z); also called S7-4E3; mAb S7-4E3
B4: anti-Siglec-7 antibody 2G1 (antibody, V domains shown)
VH: EVKLVESGGTLVKPGGSLKISCAASGFTFSNYDMSWVRQNPEKRLEWVATISSGGDYTYYPDIFKGRFTISRDDAKNALYLQMSSLRSEDTALYYCARHGYGNYDWYFDVWGAGATVTVSS
VL: VLTQSPAIMSASPGEKVTMTCSANSSFIYMYWYQQKPGSSPRLLIFDTSNLASGVPIRFSGSGSGTSYSLTISRMEAEDTATYYCQQWSSSPLTFGGGTKLELK
notes: Variable domains assembled from FR and CDR entries; the printed VL FR1 looks shortened at its N-terminus; also called 2G11 (misprint in text)
B5: anti-Siglec-7 antibody 7A3 (antibody, V domains shown)
VH: LVZSGGALVKPGGSLKLSCAASGFTFSNYAMSWVRQTPEKRLEWVASISSGGSYNYYPDSVKGRFTISRDNARNTLYLQMSSLRSKDTAMYYCASQSYGSSYWYFDVWGAGTTVTVSS
VL: DIQMTQZPATLSVTPGDRVSLSCRASQSISEYLHWYHQKSHESPRLLIKFASQSICGIPSRFSGSGSGSDFTLTINSVEPEDVGVYYCQNGHNFPYTFGGGTKLEIK
notes: Variable domains assembled from FR and CDR entries; VL FR1 and VH FR1 hold Z and VH FR1 looks shortened at its N-terminus

Assays:
[1] = target: T1, human Siglec-7 expressed on human cells (primary monocytes, dendritic cells, macrophages, NK cells, … (human, UniProt Q9Y286 19-467)); experiment: cell-based or functional assay
T1 sequence (Q9Y286 19-467): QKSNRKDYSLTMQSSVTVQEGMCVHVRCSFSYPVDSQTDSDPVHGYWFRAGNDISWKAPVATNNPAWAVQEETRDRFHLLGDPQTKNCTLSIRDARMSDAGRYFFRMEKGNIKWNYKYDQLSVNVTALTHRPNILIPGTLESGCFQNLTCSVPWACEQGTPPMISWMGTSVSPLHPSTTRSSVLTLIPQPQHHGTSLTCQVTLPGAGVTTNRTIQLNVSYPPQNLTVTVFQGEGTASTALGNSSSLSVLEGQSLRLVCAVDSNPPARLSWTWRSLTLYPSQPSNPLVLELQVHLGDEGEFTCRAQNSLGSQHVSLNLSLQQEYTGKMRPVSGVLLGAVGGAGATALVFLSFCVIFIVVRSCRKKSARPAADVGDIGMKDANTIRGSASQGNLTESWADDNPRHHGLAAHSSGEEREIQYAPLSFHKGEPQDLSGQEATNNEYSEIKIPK

[2] = target: T1, human Siglec-7 expressed on human cells …; experiment: cell-based or functional assay; remark: listed apart in the source
[3] = target: T1, human Siglec-7 expressed on human cells …; experiment: FACS, human primary monocytes, 10 ug/ml mAb
Description: (§1) Initial characterization of Siglec-7 antibodies involved determining their ability to bind Siglec-7 expressed on human primary monocytes, human primary macrophages, human primary dendritic cells, human primary neutrophils, and human primary natural killer (NK) cells. Cells were harvested, plated at 10⁶/ml in a 96 well plate, and incubated in 100 ul PBS containing 2% FBS, 2 mM EDTA and 10 μg/ml Mab and Fc blocking reagent for 1 hour in ice. Cells were washed twice and incubated in 100 ul PBS containing 2% FBS, 2 mM EDTA and 5 ug/ml PE-conjugated secondary antibody for 30 minutes on ice. Cells were washed twice in cold PBS and analyze by flow cytometry on a BD FACS Canto. Data analysis and calculation of MFI values was performed with FlowJo (TreeStar) software version 10.0.7.
(§2) Percent positive binding and mean fluorescent intensity (MFI) values for cell types bound by Siglec-7 antibodies are listed in Table 4A. Binding is compared to an isotype control. The antibodies bind to human primary monocytes, human primary dendritic cells, and human primary macrophages. In Table 4A, “Buffer” refers to cells that were treated only with the PBS buffer described supra; “Secondary Ab” refers to cells that were treated only with the PE-conjugated secondary antibody; “mIgG1,” “mIgG2a,” and “mIgG2b” refer to isotype control antibodies; and “RDS7” refers to commerically available anti-Siglec-7 antibody Mab1138 (R&D Systems; Cat. No. MAB 1138).

[4] = target: T1, human Siglec-7 expressed on human cells …; experiment: FACS, human primary macrophages, 10 ug/ml mAb
Description: as §1, §2

[5] = target: T1, human Siglec-7 expressed on human cells …; experiment: FACS, human primary dendritic cells, 10 ug/ml mAb
Description: as §1, §2

[6] = target: T2, Histidine-tagged human Siglec-7 (NovoProtein) (human, UniProt Q9Y286 19-357, limits assumed); experiment: SPR (BiaCore T200, 25 C), antibody captured on anti-mouse IgG, Siglec-7-His 25 nM, single-concentration kinetics
T2 construct: Bought protein; also called purified Siglec-7-his tagged protein; not shown: histidine tag
T2 sequence (Q9Y286 19-357 limits assumed): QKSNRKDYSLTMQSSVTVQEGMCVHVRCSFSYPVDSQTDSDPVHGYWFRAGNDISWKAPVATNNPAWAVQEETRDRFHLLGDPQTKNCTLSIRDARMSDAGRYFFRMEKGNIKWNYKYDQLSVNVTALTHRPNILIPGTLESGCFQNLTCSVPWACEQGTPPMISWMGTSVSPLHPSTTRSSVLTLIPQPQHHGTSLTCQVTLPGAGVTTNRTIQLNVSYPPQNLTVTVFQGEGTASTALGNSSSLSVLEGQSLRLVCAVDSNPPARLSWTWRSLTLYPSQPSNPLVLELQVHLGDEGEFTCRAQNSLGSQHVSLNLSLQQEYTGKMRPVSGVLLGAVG
Description: (§3) SPR data was collected at a rate of 10 Hz at 25′ C on a BiaCore T200 instrument. Data analysis was performed using BiaCore T200 Evaluation Software, version 2.0. HBS-EP+ (100 mM HEPES, 1.5 M NaCl, 30 mM EDTA, 0.5% v/v Surfactant P20, pH 7.4) was used as running buffer and for preparing reagents.
(§4) Mouse-derived antibodies (25 nM) against Siglec-7 were captured (60 s contact time, 30 μL/min flow rate, 0 s stabilization time) on a CM5 sensor chip (GE Healthcare) immobilized with anti-mouse IgG. Histidine-tagged human Siglec-7 (NovoProtein) was then flowed over the captured anti-Siglec-7 surface (120 s contact time, 30 μL/min flow rate, 300 s dissociation time). Concentration of antigen ranged from 5 nM to 100 nM, depending on information obtained from an initial screen. Duplicate single-concentration trials were performed and bracketed by a blank (0 nM antigen) sample. The chip surface was regenerated in between cycles using 10 mM glycine-HCl, pH1.7 (60 s contact time, 30 μL/min flow rate, 60 s stabilization time). The resulting SPR signal was obtained as the difference in response from measurements performed on a blank flow cell.
(§5) Affinity constants (KD) were calculated from the ratio kd/kₐ. For one antibody (clone 1E8), we validated the single-concentration analysis with a multiple-concentration approach (five concentrations of antigen used, plus one blank).

[7] = target: T3, Siglec-7-Fc (plate immobilized) (human, UniProt Q9Y286 19-357, limits assumed); experiment: RBC solid adhesion assay, plate-coated Siglec-7-Fc, antibody 0.5 or 1.0 ug/ml; % of RBC binding without antibody
T3 construct: also called Siglec-7-Fc protein; immobilized Siglec-7; not shown: Fc part
T3 sequence (Q9Y286 19-357 limits assumed): as above
Description: To determine which antibodies compete with ligand binding to Siglec-7, a red blood cell (RBC) solid adhesion assay was carried out in accordance with standard protocols (Kelm et al., Current Biology, 1994). Red blood cells are highly decorated with glycoproteins containing sialic acids: therefore, the ability of an antibody to block RBC binding to immobilized Siglec-7 can be used to determine ligand interference. Briefly, 5 μg/ml Siglec-7-Fc was coated overnight at RT in 96 well Immunolon plates, then washed with PBS, blocked for one hour with binding buffer (PBS containing %0.25 BSA 1 mM CaCl₂), Siglec-7 antibodies (0.5 μg/ml or 1.0 μg/ml) were bound for one hour at RT with gentle rocking. After removal of unbound antibody, red blood cells were added to each well at a concentration of 3.0×10⁶ cells per ml and incubated at RT for one hour. Unbound RBCs were then carefully washed off 3× with PBS, and water was added to each well for hypotonic lysis of bound RBCs. The plate was transferred to −80° C. for 10 minutes, followed by 37° C. for 15 minutes. Bound RBCs were detected by peroxidase activity, followed by 2N sulfuric acid to stop the reaction. Signal was detected at […]. Data was calculated as a percent of RBC binding to plate bound Siglec-7-Fc in the absence of antibody.

[8] = target: T2, Histidine-tagged human Siglec-7 …; experiment: SPR (BiaCore T200, 25 C), antibody captured on anti-mouse IgG, Siglec-7-His 35 nM, single-concentration kinetics
Description: as §3, §4, §5

[9] = target: T1, human Siglec-7 expressed on human cells …; experiment: cell-based or functional assay; remark: listed apart in the source
[10] = target: T1, human Siglec-7 expressed on human cells …; experiment: FACS titration on primary human dendritic cells, donor 358, 4 C
Description: (§6) Two Siglec-7 antibodies, 4E3 and 10B5, were titrated 2-fold for a 12-point curve with a concentration range of 6.67-0.00325 nM to assess binding and calculate half-maximal concentration (EC₅₀) for binding to primary human dendritic cells (FIG. 5B). Antibodies were serially diluted and incubated with cells in PBS with 1% BSA, 1 mM EDTA for 1 hour on ice (4° C.). Cells were pelleted and resuspended with goat anti-mouse secondary antibody conjugated with APC (BD Biosciences) at a 1:200 dilution in buffer. Secondary detection antibody was incubated for 30 minutes on ice (4° C.), then cells were washed 3 times in buffer before analyzing on a BD FACS Canto for APC MR. Data were analyzed with FlowJo Software (TreeStar).

[11] = target: T1, human Siglec-7 expressed on human cells …; experiment: FACS titration on primary human dendritic cells, donor 359, 4 C
Description: as §6

[12] = target: T2, Histidine-tagged human Siglec-7 …; experiment: SPR (BiaCore T200, 25 C), antibody captured on anti-mouse IgG, Siglec-7-His 20 nM, single-concentration kinetics
Description: as §3, §4, §5

Row | Binder | Percent Siglec-7 Surface Expression, DCs [1] [%] | Percent Siglec-7 Surface Expression, Monocytes [1] [%] | Percent Siglec-7 Surface Expression, U937 cells [1] [%] | Percent Siglec-7 Surface Expression, Macrophages [2] [%] | Percent Siglec-7 Surface Expression, Microglia [2] [%] | Percent Siglec-7 Surface Expression, NK cells [2] [%] | % Positive [3] [%] | MFI [3] | % Positive [4] [%] | MFI [4] | % Positive [5] [%] | MFI [5] | Kd [6] [pM] | Percent RBC Binding to Siglec-7 [7] [%] | Kd [12] [pM] | other results
1 | B1 | 19.9 | 23.9 | 82.4 | 7.4 | 34.2 | 108 | 98.7 | 380 | 99.6 | 4040 | 99.6 | 2520 | 1000 | 26.8 |  | 
2 | B2 | 99.6 | 39.8 | 89.5 | 13.1 | 26.3 | 132 | 99.4 | 486 | 99.3 | 14600 | 99.7 | 5450 |  | 11.2 |  | Kd [8]: 300 pM
3 | B3 | 11.2 | 15.1 | 30.8 | 4.2 | 20.9 | 31.2 | 98.6 | 362 | 99.6 | 4150 | 99.7 | 2650 | 300 | 20.2 |  | EC50 of Siglec-7 cell surface downregulation, primary human dendritic cells, donor 362 [9]: 114 pM; EC50 of Siglec-7 cell surface downregulation, primary human dendritic cells, donor 363 [9]: 95 pM; EC50 of Siglec-7 cell surface downregulation, primary human dendritic cells, donor 364 [9]: 49.9 pM; EC50 of Siglec-7 cell surface downregulation, primary human dendritic cells, donor 365 [9]: 33.6 pM; EC50 [10]: 336 pM; EC50 [11]: 301 pM
4 | B4 | 1100 | 140 | 121 | 95.7 | 106 | 114 | 99.4 | 577 | 99.5 | 25700 | 99.7 | 10200 |  | 14.5 | 100 | 
5 | B5 | 11 | 23.7 | 76.3 | 8.3 |  | 77.1 | 97.9 | 407 | 99.7 | 2840 | 99.7 | 956 |  | 89.5 | 1000 | 
